The results in this text go back to patent US20080194020A1 (MEDICAL AND BIOLOGICAL LABORATORIES, published 2008).

B1: CHIP, an E3-ubiquitin ligase (enzyme, mouse (endogenous in mouse DC2.4 cells), UniProt Q9WUD1 1-304, looked up)
chain: MKGKEEKEGGARLGTGGGGSPDKSPSAQELKEQGNRLFVGRKYPEAAACYGRAITRNPLVAVYYTNRALCYLKMQQPEQALADCRRALELDGQSVKAHFFLGQCQLEMESYDEAIANLQRAYSLAKEQRLNFGDDIPSALRIAKKKRWNSIEERRIHQESELHSYLTRLIAAERERELEECQRNHEGHEDDGHIRAQQACIEAKHDKYMADMDELFSQVDEKRKKRDIPDYLCGKISFELMREPCITPSGITYDRKDIEEHLQRVGHFDPVTRSPLTQEQLIPNLAMKEVIDAFISENGWVEDY
B2: biotin-labeled chicken ovalbumin (bOVA) (other, UniProt P01012 2-386, looked up)
chain: GSIGAASMEFCFDVFKELKVHHANENIFYCPIAIMSALAMVYLGAKDSTRTQINKVVRFDKLPGFGDSIEAQCGTSVNVHSSLRDILNQITKPNDVYSFSLASRLYAEERYPILPEYLQCVKELYRGGLEPINFQTAADQARELINSWVESQTNGIIRNVLQPSSVDSQTAMVLVNAIVFKGLWEKAFKDEDTQAMPFRVTEQESKPVQMMYQIGLFRVASMASEKMKILELPFASGTMSMLVLLPDEVSGLEQLESIINFEKLTEWTSSNVMEERKIKVYLPRMKMEEKYNLTSVLMAMGITDVFSSSANLSGISSAESLKISQAVHAAHAEINEAGREVVGSAEAGVDAASVSEEFRADHPFLFCIKHIATNAVLFFGRCVSP
modifications: biotin-labeled (sites not given)

Experiment [1] addresses B2. The experiment can be described thus: cell-based or functional assay.
Another experiment deals with T1, TAP1 (mouse (endogenous in mouse DC2.4 cells), UniProt P21958 1-724).
T1 construct: Endogenous protein in the cell lysate; also called TAP1/2
T1 sequence (looked up): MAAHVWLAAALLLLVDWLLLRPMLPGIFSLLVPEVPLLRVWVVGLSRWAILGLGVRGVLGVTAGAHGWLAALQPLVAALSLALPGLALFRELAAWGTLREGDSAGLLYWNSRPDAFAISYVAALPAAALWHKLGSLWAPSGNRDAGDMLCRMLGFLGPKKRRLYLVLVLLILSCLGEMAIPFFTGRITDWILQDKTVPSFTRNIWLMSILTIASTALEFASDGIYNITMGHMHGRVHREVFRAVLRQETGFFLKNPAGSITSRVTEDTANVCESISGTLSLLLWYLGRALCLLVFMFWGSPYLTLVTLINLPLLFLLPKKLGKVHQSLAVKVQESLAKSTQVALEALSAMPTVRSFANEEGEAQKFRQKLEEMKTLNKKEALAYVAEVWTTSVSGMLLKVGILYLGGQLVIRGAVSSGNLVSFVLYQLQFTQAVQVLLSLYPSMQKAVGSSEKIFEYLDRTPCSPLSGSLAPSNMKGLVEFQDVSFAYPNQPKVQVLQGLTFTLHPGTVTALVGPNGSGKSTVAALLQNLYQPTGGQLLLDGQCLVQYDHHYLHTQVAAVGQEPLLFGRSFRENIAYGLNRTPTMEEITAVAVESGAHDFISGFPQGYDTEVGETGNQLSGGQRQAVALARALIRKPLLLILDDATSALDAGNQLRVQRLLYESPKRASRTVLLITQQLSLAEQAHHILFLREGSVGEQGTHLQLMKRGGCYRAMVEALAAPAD
The experiment can be described thus: co-immunoprecipitation with anti-TAP1 from DC2.4 lysate, blot with SA-HRP. Here is the method: (§1) DC2.4 cells were incubated with bOVA and subjected to co-immunoprecipitation with anti-Sec61α. bOVA was added at 2.5 mg mL⁻¹ to cell lysates before immunoprecipitation (the two left-hand lanes in each panel).
(§2) 2×10⁷ DC2.4 or BMDC cells were cultured for four hours in a medium containing 10 μM MG-132 in the presence of bOVA at 250 μg mL⁻¹. Cells were lysed in 20 mM HEPES pH7.6 containing 1% digitonin and protease inhibitors to collect biotin-labeled samples. The samples were cleared of impurities in advance using protein G sepharose (Amersham Pharmacia Biotech), and after incubation with antibodies for precipitation (anti-Sec61β, anti Sec61α, anti-VCP, anti-BiP, anti-PDI, anti-calreticulin, anti-TAP1, and anti-TAP2), the immunoprecipitates were collected using protein G. When chicken anti-CHIP antibody was used, immunoprecipitates were collected using a rabbit anti-IgY column (a person, MBL). The precipitated samples were analyzed by SDS-PAGE and Western blotting.

Another experiment addresses T2, TAP2 (mouse (endogenous in mouse DC2.4 cells), UniProt P36371 1-702).
T2 construct: Endogenous protein in the cell lysate; also called TAP1/2
T2 sequence (looked up): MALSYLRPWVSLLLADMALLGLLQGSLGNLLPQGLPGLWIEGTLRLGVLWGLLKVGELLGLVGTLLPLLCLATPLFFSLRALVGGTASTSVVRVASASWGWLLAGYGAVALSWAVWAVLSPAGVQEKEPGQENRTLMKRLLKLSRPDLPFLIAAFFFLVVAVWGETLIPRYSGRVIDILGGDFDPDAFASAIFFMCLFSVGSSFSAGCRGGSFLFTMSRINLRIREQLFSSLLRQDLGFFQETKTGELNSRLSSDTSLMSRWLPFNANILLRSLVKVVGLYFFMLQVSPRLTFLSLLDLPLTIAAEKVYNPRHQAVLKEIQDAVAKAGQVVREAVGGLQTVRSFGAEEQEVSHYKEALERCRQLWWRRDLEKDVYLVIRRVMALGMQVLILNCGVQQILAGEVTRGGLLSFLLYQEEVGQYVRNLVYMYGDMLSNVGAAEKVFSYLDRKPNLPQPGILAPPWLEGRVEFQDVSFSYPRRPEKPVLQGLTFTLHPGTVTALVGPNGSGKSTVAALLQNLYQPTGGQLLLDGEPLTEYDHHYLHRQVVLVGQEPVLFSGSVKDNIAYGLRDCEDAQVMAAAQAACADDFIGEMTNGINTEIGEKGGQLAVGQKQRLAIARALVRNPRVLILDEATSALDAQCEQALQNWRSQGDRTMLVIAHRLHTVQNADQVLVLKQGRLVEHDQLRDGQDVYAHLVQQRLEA
Description: co-immunoprecipitation with anti-TAP2 from DC2.4 lysate, blot with SA-HRP. Here is the method: as §1, §2

For the molecule B1, the “polyubiquitination of bOVA in CHIP-knocked-down DC2.4 cells relative to parental cells” value in experiment [1] came to 34%.

Take B2: the binding result with TAP1 and in the experiment with TAP2 was “no binding” throughout.
